Blank lines part the entries; values can stand above or below the substance they belong to.
How the values were obtained:
activin A [1] = target: T1, activin A (UniProt P08476 311-426); test: cell-based or functional assay
T1 construct: Soluble ligand injected in SPR or added in the reporter assay
T1 sequence (looked up): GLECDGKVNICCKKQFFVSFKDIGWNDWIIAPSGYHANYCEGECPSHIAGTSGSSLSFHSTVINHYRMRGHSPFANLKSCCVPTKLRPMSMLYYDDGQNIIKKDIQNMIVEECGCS

GDF11 [2] = target: T2, GDF11 (UniProt O95390 299-407); test: cell-based or functional assay
T2 construct: also called Growth and differentiation factor-11; BMP11
T2 sequence (looked up): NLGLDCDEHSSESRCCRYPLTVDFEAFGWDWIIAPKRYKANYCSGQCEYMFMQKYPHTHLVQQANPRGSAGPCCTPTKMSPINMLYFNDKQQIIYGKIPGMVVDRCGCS

BMP9 [3] = target: T3, BMP9 (UniProt Q9UK05 320-429); test: cell-based or functional assay
T3 sequence (looked up): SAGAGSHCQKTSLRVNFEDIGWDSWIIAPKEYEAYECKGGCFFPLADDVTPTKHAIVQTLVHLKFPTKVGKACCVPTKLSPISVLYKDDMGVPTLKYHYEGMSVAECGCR

Activin A [4] = target: T4, Activin A (Homo sapiens, UniProt P08476); test: Biacore-based binding assay (surface plasmon resonance), activin A; settings: 37° C., capture by anti-Fc antibody
T4 sequence (P08476 311-426): T1 sequence (looked up)
Method: (§1) To determine ligand binding profiles of variant ActRIIB-Fc homodimers, a Biacore™-based binding assay was used to compare ligand binding kinetics of certain variant ActRIIB-Fc polypeptides. ActRIIB-Fc polypeptides to be tested were independently captured onto the system using an anti-Fc antibody. Ligands were then injected and allowed to flow over the captured receptor protein. ActRIIB-G1Fc was used as the control polypeptide.
as §1, with “protein.” for “protein. ActRIIB-G1Fc was used as the control polypeptide.”
(§2) A Biacore™-based binding assay was used to compare the ligand binding kinetics of an ActRIIB-Fc:ActRIIB(L79E)-Fc heterodimer with those of unmodified ActRIIB-Fc homodimer. Fusion proteins were captured onto the system using an anti-Fc antibody. Ligands were then injected and allowed to flow over the captured receptor protein at 37° C. Results are summarized in the table below, in which ligand off-rates (kd) most indicative of effective ligand traps are denoted in bold.

Activin B = target: T5, Activin B (Homo sapiens, UniProt P09529); test: Biacore-based binding assay (surface plasmon resonance), activin B; settings: 37° C., capture by anti-Fc antibody
T5 sequence (P09529 293-407): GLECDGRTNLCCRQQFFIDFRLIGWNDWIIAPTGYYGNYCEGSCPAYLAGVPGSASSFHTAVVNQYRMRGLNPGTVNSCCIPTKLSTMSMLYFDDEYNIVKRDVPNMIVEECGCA
Method: as §1, §2

GDF3 = target: T6, GDF3 (Homo sapiens, UniProt Q9NR23); test: Biacore-based binding assay (surface plasmon resonance), GDF3; settings: 37° C., capture by anti-Fc antibody
T6 sequence (Q9NR23 251-364): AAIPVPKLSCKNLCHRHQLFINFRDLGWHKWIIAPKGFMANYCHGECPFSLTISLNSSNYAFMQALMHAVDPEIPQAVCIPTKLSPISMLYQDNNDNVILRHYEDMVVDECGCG
Method: as §2

GDF8 = target: T7, GDF8 (Homo sapiens, UniProt O14793); test: Biacore-based binding assay (surface plasmon resonance), GDF8; settings: 37° C., capture by anti-Fc antibody
T7 sequence (O14793 267-375): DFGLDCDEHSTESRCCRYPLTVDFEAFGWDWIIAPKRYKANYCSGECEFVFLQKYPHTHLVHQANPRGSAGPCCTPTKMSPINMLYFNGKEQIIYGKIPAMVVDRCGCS
Method: as §1, §2

GDF11 [5] = target: T8, GDF11 (Homo sapiens, UniProt O95390); test: Biacore-based binding assay (surface plasmon resonance), GDF11; settings: 37° C., capture by anti-Fc antibody
T8 sequence (O95390 299-407): T2 sequence (looked up)
Method: as §1
as §1, with “protein.” for “protein. ActRIIB-G1Fc was used as the control polypeptide.”
as §2

BMP6 = target: T9, BMP6 (Homo sapiens, UniProt P22004); test: Biacore-based binding assay (surface plasmon resonance), BMP6; settings: 37° C., capture by anti-Fc antibody
T9 sequence (P22004 375-513): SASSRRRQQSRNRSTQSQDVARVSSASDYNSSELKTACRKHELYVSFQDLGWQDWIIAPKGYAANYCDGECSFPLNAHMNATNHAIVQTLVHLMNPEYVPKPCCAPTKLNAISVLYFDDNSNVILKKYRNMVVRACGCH
Method: as §2

BMP9 [6] = target: T10, BMP9 (Homo sapiens, UniProt Q9UK05); test: Biacore-based binding assay (surface plasmon resonance), BMP9; settings: 37° C., capture by anti-Fc antibody; Transient*: indeterminate due to transient nature of interaction
T10 sequence (Q9UK05 320-429): T3 sequence (looked up)
Method: as §1
as §1, with “protein.” for “protein. ActRIIB-G1Fc was used as the control polypeptide.”
as §2

BMP10 = target: T11, BMP10 (Homo sapiens, UniProt O95393); test: Biacore-based binding assay (surface plasmon resonance), BMP10; settings: 37° C., capture by anti-Fc antibody
T11 sequence (O95393 317-424): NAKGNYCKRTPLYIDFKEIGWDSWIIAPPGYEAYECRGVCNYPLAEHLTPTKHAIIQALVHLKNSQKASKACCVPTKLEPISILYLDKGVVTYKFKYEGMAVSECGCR
Method: as §1, §2

Substance: ActRIIB-Fc homodimer: unmodified ActRIIB-Fc homodimer, comparator of the heterodimer in Table 6
ka Activin A (Activin A [4]): 7.4e+06 M⁻¹ s⁻¹
kd Activin A (Activin A [4]): 0.00019 s⁻¹
ka Activin B (Activin B): 8.1e+06 M⁻¹ s⁻¹
kd Activin B (Activin B): 6.6e-05 s⁻¹
ka GDF3 (GDF3): 1.4e+06 M⁻¹ s⁻¹
kd GDF3 (GDF3): 0.0022 s⁻¹
ka GDF8 (GDF8): 3.8e+06 M⁻¹ s⁻¹
kd GDF8 (GDF8): 0.00026 s⁻¹
ka GDF11 (GDF11 [5]): 4.1e+07 M⁻¹ s⁻¹
kd GDF11 (GDF11 [5]): 0.00017 s⁻¹
ka BMP6 (BMP6): 1.3e+08 M⁻¹ s⁻¹
kd BMP6 (BMP6): 0.0074 s⁻¹
ka BMP9 (BMP9 [6]): 5e+06 M⁻¹ s⁻¹
kd BMP9 (BMP9 [6]): 0.0013 s⁻¹
ka BMP10 (BMP10): 5.1e+07 M⁻¹ s⁻¹
kd BMP10 (BMP10): 0.0002 s⁻¹

Substance: E50K (homodimeric ActRIIB-Fc construct) (Fc fusion)
IC50 (ng/ml), A204 CAGA12 luciferase reporter assay (activin A [1]): 132 ng/mL
IC50 (ng/ml), A204 CAGA12 luciferase reporter assay (GDF11 [2]): 180 ng/mL
IC50 (ng/ml), A204 CAGA12 luciferase reporter assay (BMP9 [3]): 721 ng/mL

Substance: E50P (homodimeric ActRIIB-Fc construct) (Fc fusion)
IC50 (ng/ml), A204 CAGA12 luciferase reporter assay (activin A [1]): 756 ng/mL
IC50 (ng/ml), A204 CAGA12 luciferase reporter assay (GDF11 [2]): 638 ng/mL
IC50 (ng/ml), A204 CAGA12 luciferase reporter assay (BMP9 [3]): 3000 ng/mL

Continued, values first:

IC50 (ng/ml), A204 CAGA12 luciferase reporter assay (activin A [1]): 128 ng/mL
IC50 (ng/ml), A204 CAGA12 luciferase reporter assay (GDF11 [2]): 99 ng/mL
IC50 (ng/ml), A204 CAGA12 luciferase reporter assay (BMP9 [3]): 409 ng/mL
Substance: A24N (homodimeric ActRIIB-Fc construct) (Fc fusion)

IC50 (ng/ml), A204 CAGA12 luciferase reporter assay (activin A [1]): 198 ng/mL
IC50 (ng/ml), A204 CAGA12 luciferase reporter assay (GDF11 [2]): 71 ng/mL
IC50 (ng/ml), A204 CAGA12 luciferase reporter assay (BMP9 [3]): 359 ng/mL
Substance: E52A (homodimeric ActRIIB-Fc construct) (Fc fusion)

IC50 (ng/ml), A204 CAGA12 luciferase reporter assay (activin A [1]): 762 ng/mL
IC50 (ng/ml), A204 CAGA12 luciferase reporter assay (GDF11 [2]): 296 ng/mL
IC50 (ng/ml), A204 CAGA12 luciferase reporter assay (BMP9 [3]): 10000 ng/mL
Substance: E52K (homodimeric ActRIIB-Fc construct) (Fc fusion)

— patent publication US20240181007A1, “COMPOSITIONS AND METHODS FOR TREATING PULMONARY HYPERTENSION” (Acceleron Pharma Inc., priority 2021, published 2024)
